In the supplement of paper PMC9170038:

Test system: MS2 coat protein
Test: apparent KD of MS2 coat protein; designed switch direction (-1 OFF switch, 1 ON switch): 1; higher = weaker reporter binding
Outline: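 The buffer was Tris-HCl pH 7.5 with KCl, MgCl2, BSA, DTT, tRNA and Tween-20. In it, SNAP-549-labelled MS2 coat protein was titrated in doubling steps from 0.7 or 1.5 nM to 3 µM over chip-bound RNA switches transcribed by stalled E. coli RNA polymerase on Illumina chips. Apparent KD is the per-design median over clusters of curve fits to normalised fluorescence.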

[1] = input ligand: microRNA oligo, concentration not stated
[2] = Eterna round: R95, input ligand: microRNA oligo, concentration not stated
[3] = Eterna round: R95, input ligand: FMN 200 uM
[4] = Eterna round: R95, input ligand: none

| Sequence | apparent KD of MS2 coat protein [1] [nM] | apparent KD of MS2 coat protein [2] [nM] | apparent KD of MS2 coat protein (input ligand: FMN 200 uM) [nM] | apparent KD of MS2 coat protein (input ligand: none) [nM] | apparent KD of MS2 coat protein [3] [nM] | apparent KD of MS2 coat protein [4] [nM] |
| --- | --- | --- | --- | --- | --- | --- |
| UAGUGAUUGCAAGGAUAUGCUAGUUUUUAUUUGUGUUUGAUAUCUAACAUGAGGAUCACCCAUGUGCAGAAGGUGCUUGAUUUG [JR_SSNG2_Sub077] (Eterna round: R96, puzzle: Same State NG 2) | 68.6 | – | – | – | – | – |
| GGAGAACAUGAGGAUCACCCAUGUGGAUGGGCGCUAGGAUAUGCGGGAGGGUGAAGAGAAGCAGAAGGAGUGGAUA [JR_SS1_Sub035] (puzzle: Same State 1) | – | 56.7 | – | – | – | – |
| GCGAGCGUACUUGCUACAUGAGGAUCACCCAUGUUCGUUGGACAGGAUAUGGUACCGUUUCGGUACCAGAAGGGUUCACAUGUA [JL SSNG3 3.77] (Eterna round: R96, puzzle: Same State NG 3) | 224 | – | 171 | 375 | – | – |
| GACUGCGUUAUGAAGGAUAUCCGCGUCUGGACAUGAGGAUCACCCAUGUAUACUUGGAUCGUGCAGGAGAAGGUCAAGGGUGAUU [JR_SS002_Sub1210] (Eterna round: R96, puzzle: Same State 2) | 163 | – | 507 | 243 | – | – |
| UAGUGUUUGCGAGGAUAUCGUUUGUUGAAGUUACGAGAAGGCGCUCUAAUUACAUGAGGAUCACCCAUGUCUGUGAUGCAUGAU [JR_SSNG1_Sub070] (Eterna round: R96, puzzle: Same State NG 1) | 56.3 | – | 65.2 | 70 | – | – |
| UUAUCUCAGACAUGAGGAUCACCCAUGUGGUUAUGACUUAGACAGGAUAUAGUAGUAUCGAAAUACUAGAAGGGUCAUUUUAUU [JR_SSNG3_Sub021] (Eterna round: R96, puzzle: Same State NG 3) | 97.5 | – | 73.4 | 143 | – | – |
| UUCCUACAUGAGGAUCACCCAUGUGACGCCUCGAUAGGAUAUGCGUGUGCCUUGGCGCAUGCAGAAGGGUUGUAGC [JL Aveso mod 9] (puzzle: Same State 1) | – | 34.8 | – | – | 39.2 | 37.5 |
| AGCUAUUACGAAGGAUAUUGUGACAUGAGGAUCACCCAUGUUUACAUGAUUAAUUGUGAUCACGUCGAGAAGGUUGUACUAACA [SameState NG2 #32] (Eterna round: R96, puzzle: Same State NG 2) | 27.3 | – | 24.3 | 30.2 | – | – |
| AUACAUGAGGAUCACCCAUGUAAUUAAUUAAUUAAUAAGAUCAAGGAUAUCAGCUCGAAUAGAGCUGAGAAGGUGAUCACAUGU [SSNG3/21-D1] (Eterna round: R96, puzzle: Same State NG 3) | 177 | – | – | – | – | – |
| GUUACAUGAGGAUCACCCAUGUAUGUGUGGGAGUAAGUGUCUUAGGAUAUCUAUUAUUUAAUUUUAGAGAAGGAAGAUUGUUGU [JMF's solution 27] (Eterna round: R96, puzzle: Same State NG 3) | 105 | – | 138 | 120 | – | – |
| AGAUCAUGACGAGGAUAUGGUACAUGAGGAUCACCCAUGUAUGUACCACGACGCGUACGUCGAAUCCAGAAGGCGUCAUGAUCA [Mat - Same State NG 2 - JL mod - D18] (Eterna round: R96, puzzle: Same State NG 2) | 92.8 | – | 21.6 | 150 | – | – |
| UAGACAAGCUUUAUGUUCUUCCUAUUCCAACAUGAGGAUCACCCAUGUAGUCUGUCGAUUGUGAGUGUAGUUGAGAU [JR_SHM208A_Sub026] (puzzle: Sensor for hsa-mir-208a) | – | 52 | – | – | 57.8 | 61.9 |
| GGUCCAUCAUGAGGAUAUGGCACCUUAUUGGUGCCAGAAGGCAUGUCUAUAGACAUGAGGAUCACCCAUGUUAUAAAUUGGACC [Eli NG1ss - 92] (Eterna round: R96, puzzle: Same State NG 1) | 98.6 | – | 20 | 111 | – | – |
| UGGAUCUAGGCUUGCCUGGGUCCAUGCUGACAUGAGGAUCACCCAUGUGCAUCCUACAAGCUUUUUGCUUGUCGGCU (puzzle: Sensor for hsa-mir-208a) | – | 194 | – | – | 178 | 221 |
| AUGAUUUAUGCAGGAUAUGAUUAACAUGAGGAUCACCCAUGUGGUGUUGUGAGUAAGGAGAGUGAUCAGAAGGGCAUUUUUUUU [JMF's solution 71] (Eterna round: R96, puzzle: Same State NG 2) | 402 | – | 1170 | 506 | – | – |
| AGCUUCAAACUUUGCUCGUCGCGCCAGCGACAUGAGGAUCACCCAUGUGGGCGCAACCUCGUUAGCCCGAGGGCUCG [Labire] (puzzle: Sensor for hsa-mir-208a) | – | 14 | – | – | 27.1 | 29 |

| Sequence | apparent KD of MS2 coat protein [1] [nM] | apparent KD of MS2 coat protein [2] [nM] | apparent KD of MS2 coat protein (input ligand: FMN 200 uM) [nM] | apparent KD of MS2 coat protein (input ligand: none) [nM] | apparent KD of MS2 coat protein [3] [nM] | apparent KD of MS2 coat protein [4] [nM] |
| --- | --- | --- | --- | --- | --- | --- |
| AAGUAACAUGAGGAUCACCCAUGUGAGGUGAGCGUAGGAUAUCGAGGAGGAAGGGUGGAGCGAGAAGGACGAGAGG [JR_SS1_Sub099] (Eterna round: R96, puzzle: Same State 1) | 281 | – | 544 | 386 | – | – |
| AUAGUUUCCGAAGGAUAUGAUGAGGAUCACCCAUCAGAAGGUUGGCUAUUGGGCUGACAUGAGGAUCACCCAUGUUCUGGAGUU (Eterna round: R96, puzzle: Same State NG 1) | 39.5 | – | 39.8 | 64.5 | – | – |
| AUUGCUUUCGCAGGAUAUGAUGCGAAAAUUGCGUCAGAAGGGUGGAGUAUCUCAUUGCAAGAGGACAUGAGGAUCACCCAUGUC [SameState NG1 #87] (Eterna round: R96, puzzle: Same State NG 1) | 140 | – | 40.5 | 216 | – | – |
| UGGUACAUGGGAGGAUAUCAUGUAGACAUGAGGAUCACCCAUGUAGCCAUGGAGACAUGGGAGAAUGAGAAGGCCCAUGUACCU [JL SSNG1 3.54] (Eterna round: R96, puzzle: Same State NG 2) | 14.1 | – | 298 | 104 | – | – |
| CCAUAACUGUGAGGAUAUUGUUGCGUUUAGUGACGAGAAGGCAUUCAUGUGAUAUAUACAUACAUGAGGAUCACCCAUGUUGUA [NG 1 30P] (Eterna round: R96, puzzle: Same State NG 1) | 21.4 | – | – | – | – | – |
| UUAAUGAAGUAAGGAUAUACAUGAGGAAUUCUCGUAGAAGGUACUAUACAUGAGGAUCACCCAUGUGCCGGUCAGAAGACUGGA [Mat - Same State NG 1 - JL mod - D11] (Eterna round: R96, puzzle: Same State NG 1) | 302 | – | 454 | 415 | – | – |
| UUACUCAUGUAAGGAUAUGCAGCCGUUUCGGCUGCAGAAGGUACUAUAAUACAUGAGGAUCACCCAUGUCUCUAUUAUUUAGUG [salish99_SSNG1_r04_922] (Eterna round: R96, puzzle: Same State NG 1) | 39.9 | – | – | – | – | – |
| CCGCCGGGAACCCGGCGGAAACAUGAGGAUCACCCAUGUACACAGGAUAUCGUGACAUUAACAAACGAGAAGGGUGGCCGAGAC [Atre] (Eterna round: R96, puzzle: Same State NG 3) | 91.6 | – | 345 | 137 | – | – |
| GGAGGAUGAGCGUAGGAUAUAGGAGGAGUGACAUGAGGAUCACCCAUGUAGUAGGAGGGAAAGGGCUAGAAGGACGAGGAAGAGG [JR_SS2_Sub071] (puzzle: Same State 2) | – | 51.2 | – | – | 56.1 | 70.2 |
| GUAAUAAUGUAAGGAUAUACAUGAGGAUUUCUCGUAGAAGGUACAAGACAUGAGGAUCACCCAUGUGUCGCUCCGUAGAGCGUA [Mat - Same State NG 1 - JL mod - D15] (Eterna round: R96, puzzle: Same State NG 1) | 168 | – | 297 | 448 | – | – |
| CUGAGCAAUCAAGGAUAUCACGUCGUUUAGACGUGAGAAGGUGAUCAUAACAUGAGGAUCACCCAUGUAUUACAUGAAGCUCAG [SSNG1/1-A3] (Eterna round: R96, puzzle: Same State NG 1) | 363 | – | 767 | 919 | – | – |
| GCUCGGCUGAUGGCCUACAUGAGGAUCACCCAUGUGAGUGGGCAGGAUAUCUAGAUUCAGGAUGUAGAGAAGGGCCUGCCGAGC [SameState NG3 #39] (Eterna round: R96, puzzle: Same State NG 3) | 331 | – | 1500 | 1190 | – | – |
| UAAAUAAAGUAAGGAUAUACAUGAGGAUCUCUCGUAGAAGGUACUAUACAUGAGGAUCACCCAUGUGCCGGUCCGUAGACUGGA [Mat - Same State NG 1 - JL mod - D8] (Eterna round: R96, puzzle: Same State NG 1) | 107 | – | 475 | 68.8 | – | – |
| GUAGCAUACCGAGGAUAUUCAUAUUAUACAUGAGGAUCACCCAUGUGGCCACAUUAGUGGCCUUGGGAGAAGGCGGAAUGCUAC [Xeonanis - 20 Mod37] (Eterna round: R96, puzzle: Same State NG 2) | 290 | – | 99.2 | 669 | – | – |
| GGCUGCGUUGUGAAGGAUAUCCGCGUCUGGACAUGAGGAUCACCCAUGUAUGCUUGGAUCGUGCCGGAGAAGGUCACGAAUGAUU [JR_SS002_Sub1213] (Eterna round: R96, puzzle: Same State 2) | 29.4 | – | 14 | 55.2 | – | – |
| GCGCUACAUGAGGAUCACCCAUGUGCGAACGCACGAGGAUAUGCAUGGGCUAAUGCUGGUGCAGAAGGCGUGGCGC [Pin2Pin #8] (puzzle: Same State 1) | – | 23.8 | – | – | – | – |
